US20200040086A1 (BERLIN CHEMIE, published 2020)

Tests used:
WIQYKGHC = target: T1, WIQYKGHC; assay: peptide microarray of 8mer LY75 peptides
T1 construct: 8mer of LY75 on the peptide microarray, chart Region 10
T1 peptide: WIQYKGHC

LSCYKVFH = target: T2, LSCYKVFH; assay: peptide microarray of 8mer LY75 peptides, LY75_A1 at 1 µg/mL, anti-human IgG Alexa 647
T2 construct: 8mer of LY75 on the peptide microarray, chart Region 2
T2 peptide: LSCYKVFH
Protocol: (§1) The peptide microarray analysis was performed by LC Sciences, Houston Tex., in brief the method comprised the following steps:—Contiguous 8mer peptides of LY75 protein having […] spanning residues 216 to 1666 of the full length LY75 protein were synthesized and immobilized on a microarray chip. The chip comprised three panels such that the experiment was performed in triplicate. The microarray was addressed with LY75_A1 to identify the peptides to which the antibody bound. The binding assay was performed under the following conditions:—
(§2) The microarray comprising the contiguous peptides in triplicate was washed with 1 mL of binding buffer at 4° C. for 20 min. It was then incubated with 1 μg/mL LY75_A1 in binding buffer (pH 7.0) at 4° C. for 2 hrs. The array was again washed with 0.5 mL of washing buffer at 4° C. for 30 min then incubated with 25 ng/mL anti-human IgG Alexa 647 conjugate in binding buffer (pH 7.0) at 4° C. for 1 hr. The array was again washed with 0.5 mL of washing buffer at 4° C. for 30 min.

YKSDQALH = target: T3, YKSDQALH; assay: as above
T3 construct: 8mer of LY75 on the peptide microarray, chart Region 10
T3 peptide: YKSDQALH
Protocol: as §1, §2

DREFIYLR = target: T4, DREFIYLR; assay: as above
T4 construct: 8mer of LY75 on the peptide microarray, chart Region 3
T4 peptide: DREFIYLR
Protocol: as §1, §2

EFIYLRPF = target: T5, EFIYLRPF; assay: as above
T5 construct: 8mer of LY75 on the peptide microarray, chart Region 3
T5 peptide: EFIYLRPF
Protocol: as §1, §2

DHFTYSRY = target: T6, DHFTYSRY; assay: as above
T6 construct: 8mer of LY75 on the peptide microarray, chart Region 4
T6 peptide: DHFTYSRY
Protocol: as §1, §2

HFTYSRYP = target: T7, HFTYSRYP; assay: as above
T7 construct: 8mer of LY75 on the peptide microarray, chart Region 4
T7 peptide: HFTYSRYP
Protocol: as §1, §2

YSRYPWHR = target: T8, YSRYPWHR; assay: as above
T8 construct: 8mer of LY75 on the peptide microarray, chart Region 4
T8 peptide: YSRYPWHR
Protocol: as §1, §2

YPWHRFPV = target: T9, YPWHRFPV; assay: as above
T9 construct: 8mer of LY75 on the peptide microarray, chart Region 4
T9 peptide: YPWHRFPV
Protocol: as §1, §2

PWHRFPVT = target: T10, PWHRFPVT; assay: as above
T10 construct: 8mer of LY75 on the peptide microarray, chart Region 4
T10 peptide: PWHRFPVT
Protocol: as §1, §2

WHRFPVTF = target: T11, WHRFPVTF; assay: as above
T11 construct: 8mer of LY75 on the peptide microarray, chart Region 4
T11 peptide: WHRFPVTF
Protocol: as §1, §2

HRFPVTFG = target: T12, HRFPVTFG; assay: as above
T12 construct: 8mer of LY75 on the peptide microarray, chart Region 4
T12 peptide: HRFPVTFG
Protocol: as §1, §2

ELTYSNFH = target: T13, ELTYSNFH; assay: as above
T13 construct: 8mer of LY75 on the peptide microarray, chart Region 5
T13 peptide: ELTYSNFH
Protocol: as §1, §2

FTSCSERH = target: T14, FTSCSERH; assay: as above
T14 construct: 8mer of LY75 on the peptide microarray, chart Region 6
T14 peptide: FTSCSERH
Protocol: as §1, §2

SCSERHFV = target: T15, SCSERHFV; assay: as above
T15 construct: 8mer of LY75 on the peptide microarray, chart Region 6
T15 peptide: SCSERHFV
Protocol: as §1, §2

SERHFVSL = target: T16, SERHFVSL; assay: as above
T16 construct: 8mer of LY75 on the peptide microarray, chart Region 6
T16 peptide: SERHFVSL
Protocol: as §1, §2

FVSLCQKY = target: T17, FVSLCQKY; assay: as above
T17 construct: 8mer of LY75 on the peptide microarray, chart Region 6
T17 peptide: FVSLCQKY
Protocol: as §1, §2

LNNLYKII = target: T18, LNNLYKII; assay: as above
T18 construct: 8mer of LY75 on the peptide microarray, chart Region 7
T18 peptide: LNNLYKII
Protocol: as §1, §2

VYFHQHSI = target: T19, VYFHQHSI; assay: as above
T19 construct: 8mer of LY75 on the peptide microarray, chart Region 8
T19 peptide: VYFHQHSI
Protocol: as §1, §2

KKLSRLTY = target: T20, KKLSRLTY; assay: as above
T20 construct: 8mer of LY75 on the peptide microarray, chart Region 9
T20 peptide: KKLSRLTY
Protocol: as §1, §2

KLSRLTYS = target: T21, KLSRLTYS; assay: as above
T21 construct: 8mer of LY75 on the peptide microarray, chart Region 9
T21 peptide: KLSRLTYS
Protocol: as §1, §2

LSRLTYSS = target: T22, LSRLTYSS; assay: as above
T22 construct: 8mer of LY75 on the peptide microarray, chart Region 9
T22 peptide: LSRLTYSS
Protocol: as §1, §2

RWIQYKGH = target: T23, RWIQYKGH; assay: as above
T23 construct: 8mer of LY75 on the peptide microarray, chart Region 10
T23 peptide: RWIQYKGH
Protocol: as §1, §2

QYKGHCYK = target: T24, QYKGHCYK; assay: as above
T24 construct: 8mer of LY75 on the peptide microarray, chart Region 10
T24 peptide: QYKGHCYK
Protocol: as §1, §2

Measured: binding result

B1: LY75_A1 (antibody, V domains shown)
VH: EVQLVESGGGLVKPGGSLRLSCAASGFTYSNAWMSWVRQAPGKGLEWVGRIKSKTDGGTTDYAAPVQGRFTISRDDSKNTLYLQMNSLKTEDTAVYYCTIFGVVSFDYWGQGTLVTVSS
VL: DVQMTQSPSSLSASVGDRVTITCRASQSISDYLSWYQQRPGKAPNLLIYAASNLKTGVPSRFSGSGSGTDFTLTISTLQPEDFATYYCQQSYRSPWTFGQGTKVEIKR
notes: detected with anti-human IgG in the microarray; also called antibody LY75_A1; LY75_A1 monoclonal antibody
no binding (tested: 1 µg/mL): WIQYKGHC
binds: all other assays above
